This assay addresses SpyTag-fused glucose dehydrogenase V149C/G190C (Streptococcus pyogenes | Aspergillus flavus).

The values that follow come from PMC9915066.

Substance CYTc-SpyCatcher came in with an Imax^app (nA): direct electron transfer current of the complex-immobilized gold electrode on successive glucose addition, chronoamperometry at +400 mV vs. Ag/AgCl; ST-GDH alone hardly gave a response of 55 nA.
